Assay results taken from article PMC2363545.

Target: IGF-II (insulin-like growth factor-II)
Test: SPR; BIAcore; who was immobilised, buffer, pH and temperature not stated (abstract P25)

Substance	Kd [nM]	koff [s⁻¹]	kon [M⁻¹ s⁻¹]
IGF2R domain 11 (domain or fragment)	153	0.0138	90000
IGF2R domains 10-12 (domain or fragment)	346	0.0086	24800
IGF2R domains 10-13 (domain or fragment)	49.3	0.00808	164000
IGF2R domains 11-12 (domain or fragment)	134	0.0082	61300

Substances with a lower Kd, results first:

Kd [nM]	koff [s⁻¹]	kon [M⁻¹ s⁻¹]	Substance
42.6	0.00426	100000	IGF2R domains 11-13 (domain or fragment)
9.55	0.0113	1.18e+06	sIGF2R (domains 1-15), soluble insulin-like growth factor 2 receptor (from UniProt P11717 41-2304)
